This note sets out measurements from article PMC5337904, “A novel cytochrome P450, CYP3201B1, is involved in (R)‐mandelonitrile biosynthesis in a cyanogenic millipede” (FEBS Open Bio, 2017).

Holding throughout (settings): 50 nM enzyme, 2 mM NADPH, 50 mM potassium phosphate pH 6.5, 35 °C, 5 min, with yeast P450 reductase
One series addresses CYP3201B1 (Chamberlinius hualienensis, UniProt A0A1J1DVP9).
In the next series the test system is Cc1ccccc1CC#N. Nature of the series: cells, lysate or membranes.
The next series concerns Cc1cccc(CC#N)c1. Nature of the series: cells, lysate or membranes.

In general, Km refers to the concentration of substrate that gives half-maximal velocity. For orientation: kcat means the maximal rate divided by the concentration of active sites. As a reminder, the kcat/Km is the second-order rate constant that governs catalysis at low substrate concentration.

Like-named read-outs stand apart in the source and are kept apart here.

Sequence of CYP3201B1 (A0A1J1DVP9 1-501 limits assumed): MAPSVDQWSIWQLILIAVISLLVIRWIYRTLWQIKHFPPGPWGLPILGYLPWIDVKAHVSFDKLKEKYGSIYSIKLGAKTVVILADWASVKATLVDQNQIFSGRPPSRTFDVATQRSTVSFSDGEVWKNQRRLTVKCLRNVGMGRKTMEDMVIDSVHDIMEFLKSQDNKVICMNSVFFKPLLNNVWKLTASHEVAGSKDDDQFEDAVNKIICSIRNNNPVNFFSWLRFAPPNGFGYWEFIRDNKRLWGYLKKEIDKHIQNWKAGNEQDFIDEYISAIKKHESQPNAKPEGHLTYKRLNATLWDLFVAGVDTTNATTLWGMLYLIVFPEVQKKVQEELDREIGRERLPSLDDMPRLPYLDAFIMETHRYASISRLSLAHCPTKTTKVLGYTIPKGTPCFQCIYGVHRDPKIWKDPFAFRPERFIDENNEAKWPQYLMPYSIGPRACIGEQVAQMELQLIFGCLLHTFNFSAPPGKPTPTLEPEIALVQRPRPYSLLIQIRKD

`N#CCc1ccccc1` [PAN]: the Michaelis constant (Km) at CYP3201B1 (product (R)-mandelonitrile) amounted to 9.2 ± 2.3 µM.

For `N#CCc1ccc(O)cc1` [4‐HydroxyPAN], the Km at CYP3201B1 was determined as 15.8 ± 1.2 µM.

As for CYP3201B1 (Chamberlinius hualienensis), in the series on Cc1ccccc1CC#N, the Km was 6.6 ± 1.6 µM, the turnover number (kcat) came out at 1.12 ± 0.07 s⁻¹ and the kcat/Km worked out at 170000 M⁻¹ s⁻¹. In addition, in the series on Cc1cccc(CC#N)c1, the Km came out at 6.9 ± 1.3 µM, the kcat amounted to 1.09 ± 0.0433 s⁻¹ and the kcat/Km amounted to 158000 M⁻¹ s⁻¹.
